Patent US10058586B2, “Use of human small leucine zipper protein in adipocyte differentiation procedure” (Korea University Research and Business Foundation, priority 2013, dated 2018)

What was measured:
[1] = system: FABP4 and other PPARγ2 target genes; assay: RT-PCR and real-time PCR of PPARγ2 target genes in differentiated preadipocytes of sLZIP TG mice; assay type: cell-based, mouse; conditions: sLZIP TG mice preadipocytes differentiated into adipocytes
Method: According to instructions of the manufacturer, a TRIzol reagent (Invitrogen, Carlsbad, Calif.) was added to directly lyse cells in a culture dish. Accupower RT PreMix (BioNeer, Daejeon, Korea) was used to synthesize cDNA from 2 μg of total RNA. A reaction was performed for 60 minutes at 42° C. and for 5 minutes at 94° C. PCR amplification was performed using oligomers listed in Table 2 and a Hipi PCR Mix Kit (ELPIS). As an internal control group, GAPDH was amplified. A PCR product was subjected to electrophoresis in 1-2% (w/v) agarose gel containing 0.5 μg/mL ethidium bromide. A size of the PCR product was measured by comparing it with 1 kb DNA ladder marker (Invitrogen). An intensity of bands amplified according to RT-PCR was analyzed using MultiImage™ Light Cabinet (version 5.5, Alpha Innotech Corp., San Leandro, Calif.).
Real-time PCR was performed in LightCycler 480 using a SYBR Green Master Mix (Roche, Mannheim, Germany). β-actin was used as an internal control group. A target gene expression level rate with respect to β-actin was calculated using CT method. A Ct value is defined as a PCR cycle number at which a fluorescence signal reaches a fixed target threshold. Experiments were technically repeated three times for each experiment.
Adipocyte differentiation is a well-regulated procedure. […] A promoter activity was measured according to luciferase analysis (FIG. 8B). […]

[2] = system: NCoR1; assay: Immunoprecipitation with anti-NCoR1 antibodies in 293T cells expressing Flag-sLZIP; assay type: binding; conditions: 10 nM RZD for 24 hours
Method: 293T cells were obtained and washed with cold PBS. The cells were re-suspended in an IP lysis buffer [25 mM of Tris-HCl (pH 7.4), 150 mM of NaCl, 1 mM of EDTA, 1% NP-40 and 5% glycerol, and a protease inhibitor]. A suspension was centrifuged at 16,000×g for 20 minutes at 4° C. Supernatants were collected and incubated with 0.5 μg of appropriate antibodies and 25 μl of protein A/G-agarose or a GST Sepharose 4B bead for 24 hours at 4° C. A protein complex was centrifuged at 1,000×g with a cold IP lysis buffer for 1 minute and washed five times. The final pellet was re-suspended in 50 μl of an SDS-sample buffer containing 5% β-mercaptoethanol and heated for 10 minutes at 100° C. A protein sample was isolated in SDS-PAGE (8 to 10%) and transferred to nitrocellulose membranes. Co-precipitated proteins were detected according to western blotting using specific antibodies.
For this purpose, 293T cells were transfected with GST-PPARγ2 and Flag-sLZIP and were treated or not treated with 10 nM of RZD for 24 hours. […] A protein complex was analyzed in SDS-PAGE, and immunoblotted with anti-GST and anti-Flag antibodies. […] The cell lysates were GST pull-down analyzed (FIG. 5C). […] The cell lysates were GST pull-down analyzed (FIG. 5D). […] A protein complex was analyzed in SDS-PAGE, and then immunoblotted with anti-NCoR1 and anti-Flag antibodies (FIG. 5E). […]

B1: sLZIP: human small leucine-zipper protein, isoform of LZIP, 354 amino acids, no transmembrane domain; GenBank FJ263669, SEQ ID NO: 1 (protein, listed as Homo sapiens)
chain: MELELDAGDQDLLAFLLEESGDLGTAPDEAVRAPLDWALPLSEVPSDWEVDDLLCSLLSPPASLNILSSSNPCLVHHDHTYSLPRETVSMDLESESCRKEGTQMTPQHMEELAEQEIARLVLTDEEKSLLEKEGLILPETLPLTKTEEQILKRVRRKIRNKRSAQESRRKKKVYVGGLESRVLKYTAQNMELQNKVQLLEEQNLSLLDQLRKLQAMVIEISNKTSSSSMYSSDTRGSLPAEHGVLSRQLRALPSEDPYQLELPALQSEVPKDSTHQWLDGSDCVLQAPGNTSCLLHYMPQAPSAEPPLEWPFPDLFSEPLCRGPILPLQANLTRKGGWLPTGSPSVILQDRYSG
In the case of B1, the “expression of FABP4 and other PPARγ2 target genes (C/EBPα, LPL) mRNA” value [1] is reported as “down-regulated” and the “interaction with NCoR1 (immunoprecipitation)” value [2] is reported as “NCoR1 was slightly dissociated from sLZIP”.
